Patent US20190338009A1 (ZEALAND PHARMA A S, published 2019)
Square brackets hold non-standard residues; d marks the D form. Aib = CC(C)(N)C(=O)O

B1: Compound 30 (peptide)
peptide: H-H[Aib]EGSFTSELATILDEQAARDFIAWLYRHKITD-OH
SMILES: CC[C@H](C)[C@H](NC(=O)[C@H](Cc1ccccc1)NC(=O)[C@H](CC(=O)O)NC(=O)[C@H](CCCNC(=N)N)NC(=O)[C@H](C)NC(=O)[C@H](C)NC(=O)[C@H](CCC(N)=O)NC(=O)[C@H](CCC(=O)O)NC(=O)[C@H](CC(=O)O)NC(=O)[C@H](CC(C)C)NC(=O)[C@@H](NC(=O)[C@@H](NC(=O)[C@H](C)NC(=O)[C@H](CC(C)C)NC(=O)[C@H](CCC(=O)O)NC(=O)[C@H](CO)NC(=O)[C@@H](NC(=O)[C@H](Cc1ccccc1)NC(=O)[C@H](CO)NC(=O)CNC(=O)[C@H](CCC(=O)O)NC(=O)C(C)(C)NC(=O)[C@@H](N)Cc1c[nH]cn1)[C@@H](C)O)[C@@H](C)O)[C@@H](C)CC)C(=O)N[C@@H](C)C(=O)N[C@@H](Cc1c[nH]c2ccccc12)C(=O)N[C@@H](CC(C)C)C(=O)N[C@@H](Cc1ccc(O)cc1)C(=O)N[C@@H](CCCNC(=N)N)C(=O)N[C@@H](Cc1c[nH]cn1)C(=O)N[C@@H](CCCCN)C(=O)N[C@H](C(=O)N[C@H](C(=O)N[C@@H](CC(=O)O)C(=O)O)[C@@H](C)O)[C@@H](C)CC
B2: Compound 33 (peptide)
peptide: H-H[Aib]EGTFTSELATILDEQAARDFINWLIAHKITD-OH
SMILES: CC[C@H](C)[C@H](NC(=O)[C@H](CC(C)C)NC(=O)[C@H](Cc1c[nH]c2ccccc12)NC(=O)[C@H](CC(N)=O)NC(=O)[C@@H](NC(=O)[C@H](Cc1ccccc1)NC(=O)[C@H](CC(=O)O)NC(=O)[C@H](CCCNC(=N)N)NC(=O)[C@H](C)NC(=O)[C@H](C)NC(=O)[C@H](CCC(N)=O)NC(=O)[C@H](CCC(=O)O)NC(=O)[C@H](CC(=O)O)NC(=O)[C@H](CC(C)C)NC(=O)[C@@H](NC(=O)[C@@H](NC(=O)[C@H](C)NC(=O)[C@H](CC(C)C)NC(=O)[C@H](CCC(=O)O)NC(=O)[C@H](CO)NC(=O)[C@@H](NC(=O)[C@H](Cc1ccccc1)NC(=O)[C@@H](NC(=O)CNC(=O)[C@H](CCC(=O)O)NC(=O)C(C)(C)NC(=O)[C@@H](N)Cc1c[nH]cn1)[C@@H](C)O)[C@@H](C)O)[C@@H](C)O)[C@@H](C)CC)[C@@H](C)CC)C(=O)N[C@@H](C)C(=O)N[C@@H](Cc1c[nH]cn1)C(=O)N[C@@H](CCCCN)C(=O)N[C@H](C(=O)N[C@H](C(=O)N[C@@H](CC(=O)O)C(=O)O)[C@@H](C)O)[C@@H](C)CC
B3: Compound 29 (peptide)
peptide: H-H[Aib]EGTFTDELATILDEQAARDFIAWLQAQKITD-OH
SMILES: CC[C@H](C)[C@H](NC(=O)[C@H](Cc1ccccc1)NC(=O)[C@H](CC(=O)O)NC(=O)[C@H](CCCNC(=N)N)NC(=O)[C@H](C)NC(=O)[C@H](C)NC(=O)[C@H](CCC(N)=O)NC(=O)[C@H](CCC(=O)O)NC(=O)[C@H](CC(=O)O)NC(=O)[C@H](CC(C)C)NC(=O)[C@@H](NC(=O)[C@@H](NC(=O)[C@H](C)NC(=O)[C@H](CC(C)C)NC(=O)[C@H](CCC(=O)O)NC(=O)[C@H](CC(=O)O)NC(=O)[C@@H](NC(=O)[C@H](Cc1ccccc1)NC(=O)[C@@H](NC(=O)CNC(=O)[C@H](CCC(=O)O)NC(=O)C(C)(C)NC(=O)[C@@H](N)Cc1c[nH]cn1)[C@@H](C)O)[C@@H](C)O)[C@@H](C)O)[C@@H](C)CC)C(=O)N[C@@H](C)C(=O)N[C@@H](Cc1c[nH]c2ccccc12)C(=O)N[C@@H](CC(C)C)C(=O)N[C@@H](CCC(N)=O)C(=O)N[C@@H](C)C(=O)N[C@@H](CCC(N)=O)C(=O)N[C@@H](CCCCN)C(=O)N[C@H](C(=O)N[C@H](C(=O)N[C@@H](CC(=O)O)C(=O)O)[C@@H](C)O)[C@@H](C)CC
B4: Compound 32 (peptide)
peptide: H-H[Aib]EGTFSSELATILDGKAARDFIAWLIAHKITD-OH
SMILES: CC[C@H](C)[C@H](NC(=O)[C@H](CC(C)C)NC(=O)[C@H](Cc1c[nH]c2ccccc12)NC(=O)[C@H](C)NC(=O)[C@@H](NC(=O)[C@H](Cc1ccccc1)NC(=O)[C@H](CC(=O)O)NC(=O)[C@H](CCCNC(=N)N)NC(=O)[C@H](C)NC(=O)[C@H](C)NC(=O)[C@H](CCCCN)NC(=O)CNC(=O)[C@H](CC(=O)O)NC(=O)[C@H](CC(C)C)NC(=O)[C@@H](NC(=O)[C@@H](NC(=O)[C@H](C)NC(=O)[C@H](CC(C)C)NC(=O)[C@H](CCC(=O)O)NC(=O)[C@H](CO)NC(=O)[C@H](CO)NC(=O)[C@H](Cc1ccccc1)NC(=O)[C@@H](NC(=O)CNC(=O)[C@H](CCC(=O)O)NC(=O)C(C)(C)NC(=O)[C@@H](N)Cc1c[nH]cn1)[C@@H](C)O)[C@@H](C)O)[C@@H](C)CC)[C@@H](C)CC)C(=O)N[C@@H](C)C(=O)N[C@@H](Cc1c[nH]cn1)C(=O)N[C@@H](CCCCN)C(=O)N[C@H](C(=O)N[C@H](C(=O)N[C@@H](CC(=O)O)C(=O)O)[C@@H](C)O)[C@@H](C)CC
B5: Compound 34 (peptide)
peptide: H-H[Aib]EGTFTSELATILDEQAARDFISWLIAHKITD-OH
SMILES: CC[C@H](C)[C@H](NC(=O)[C@H](CC(C)C)NC(=O)[C@H](Cc1c[nH]c2ccccc12)NC(=O)[C@H](CO)NC(=O)[C@@H](NC(=O)[C@H](Cc1ccccc1)NC(=O)[C@H](CC(=O)O)NC(=O)[C@H](CCCNC(=N)N)NC(=O)[C@H](C)NC(=O)[C@H](C)NC(=O)[C@H](CCC(N)=O)NC(=O)[C@H](CCC(=O)O)NC(=O)[C@H](CC(=O)O)NC(=O)[C@H](CC(C)C)NC(=O)[C@@H](NC(=O)[C@@H](NC(=O)[C@H](C)NC(=O)[C@H](CC(C)C)NC(=O)[C@H](CCC(=O)O)NC(=O)[C@H](CO)NC(=O)[C@@H](NC(=O)[C@H](Cc1ccccc1)NC(=O)[C@@H](NC(=O)CNC(=O)[C@H](CCC(=O)O)NC(=O)C(C)(C)NC(=O)[C@@H](N)Cc1c[nH]cn1)[C@@H](C)O)[C@@H](C)O)[C@@H](C)O)[C@@H](C)CC)[C@@H](C)CC)C(=O)N[C@@H](C)C(=O)N[C@@H](Cc1c[nH]cn1)C(=O)N[C@@H](CCCCN)C(=O)N[C@H](C(=O)N[C@H](C(=O)N[C@@H](CC(=O)O)C(=O)O)[C@@H](C)O)[C@@H](C)CC
B6: Compound 31 (peptide)
peptide: H-H[Aib]EGSFTSELATILDGKAARDFIAWLIAHKITD-OH
SMILES: CC[C@H](C)[C@H](NC(=O)[C@H](CC(C)C)NC(=O)[C@H](Cc1c[nH]c2ccccc12)NC(=O)[C@H](C)NC(=O)[C@@H](NC(=O)[C@H](Cc1ccccc1)NC(=O)[C@H](CC(=O)O)NC(=O)[C@H](CCCNC(=N)N)NC(=O)[C@H](C)NC(=O)[C@H](C)NC(=O)[C@H](CCCCN)NC(=O)CNC(=O)[C@H](CC(=O)O)NC(=O)[C@H](CC(C)C)NC(=O)[C@@H](NC(=O)[C@@H](NC(=O)[C@H](C)NC(=O)[C@H](CC(C)C)NC(=O)[C@H](CCC(=O)O)NC(=O)[C@H](CO)NC(=O)[C@@H](NC(=O)[C@H](Cc1ccccc1)NC(=O)[C@H](CO)NC(=O)CNC(=O)[C@H](CCC(=O)O)NC(=O)C(C)(C)NC(=O)[C@@H](N)Cc1c[nH]cn1)[C@@H](C)O)[C@@H](C)O)[C@@H](C)CC)[C@@H](C)CC)C(=O)N[C@@H](C)C(=O)N[C@@H](Cc1c[nH]cn1)C(=O)N[C@@H](CCCCN)C(=O)N[C@H](C(=O)N[C@H](C(=O)N[C@@H](CC(=O)O)C(=O)O)[C@@H](C)O)[C@@H](C)CC
B7: Compound 2 (peptide)
peptide: H-H[Aib]EGTFSSELATILDEQAARDFIAWLIAHKITD-OH
SMILES: CC[C@H](C)[C@H](NC(=O)[C@H](CC(C)C)NC(=O)[C@H](Cc1c[nH]c2ccccc12)NC(=O)[C@H](C)NC(=O)[C@@H](NC(=O)[C@H](Cc1ccccc1)NC(=O)[C@H](CC(=O)O)NC(=O)[C@H](CCCNC(=N)N)NC(=O)[C@H](C)NC(=O)[C@H](C)NC(=O)[C@H](CCC(N)=O)NC(=O)[C@H](CCC(=O)O)NC(=O)[C@H](CC(=O)O)NC(=O)[C@H](CC(C)C)NC(=O)[C@@H](NC(=O)[C@@H](NC(=O)[C@H](C)NC(=O)[C@H](CC(C)C)NC(=O)[C@H](CCC(=O)O)NC(=O)[C@H](CO)NC(=O)[C@H](CO)NC(=O)[C@H](Cc1ccccc1)NC(=O)[C@@H](NC(=O)CNC(=O)[C@H](CCC(=O)O)NC(=O)C(C)(C)NC(=O)[C@@H](N)Cc1c[nH]cn1)[C@@H](C)O)[C@@H](C)O)[C@@H](C)CC)[C@@H](C)CC)C(=O)N[C@@H](C)C(=O)N[C@@H](Cc1c[nH]cn1)C(=O)N[C@@H](CCCCN)C(=O)N[C@H](C(=O)N[C@H](C(=O)N[C@@H](CC(=O)O)C(=O)O)[C@@H](C)O)[C@@H](C)CC

Biological target: human glucagon-like peptide 1 receptor (GLP-1R) (human, UniProt P43220 24-463)
Assay: cell-based or functional assay

B1 was tested. Which “EC50 GLP-1 (nM); cAMP AlphaScreen, HEK293 cells expressing human GLP-1R” value (from here on “EC50 GLP-1 (nM); cAMP AlphaScreen”) did it give?
Its value is 0.1 nM.

With B2 as the binder, how does the “EC50 GLP-1 (nM); cAMP AlphaScreen” value read?
The value was 0.004 nM.

For B3, which “EC50 GLP-1 (nM); cAMP AlphaScreen” value is on record?
The value was 0.044 nM.

B4 was tested. Which “EC50 GLP-1 (nM); cAMP AlphaScreen” value did it give?
The value was 0.038 nM.

How did the “EC50 GLP-1 (nM); cAMP AlphaScreen” value turn out when B5 was run?
Its value is 0.005 nM.

With B6 as the binder, how does the “EC50 GLP-1 (nM); cAMP AlphaScreen” value read?
The value was 0.02 nM.

For B7, which “EC50 GLP-1 (nM); cAMP AlphaScreen” value is on record?
Its value is 0.046 nM.

Biological target: T1, human GLP-2 receptor (hGLP2-R) (human, UniProt O95838 1-553)
T1 sequence (looked up): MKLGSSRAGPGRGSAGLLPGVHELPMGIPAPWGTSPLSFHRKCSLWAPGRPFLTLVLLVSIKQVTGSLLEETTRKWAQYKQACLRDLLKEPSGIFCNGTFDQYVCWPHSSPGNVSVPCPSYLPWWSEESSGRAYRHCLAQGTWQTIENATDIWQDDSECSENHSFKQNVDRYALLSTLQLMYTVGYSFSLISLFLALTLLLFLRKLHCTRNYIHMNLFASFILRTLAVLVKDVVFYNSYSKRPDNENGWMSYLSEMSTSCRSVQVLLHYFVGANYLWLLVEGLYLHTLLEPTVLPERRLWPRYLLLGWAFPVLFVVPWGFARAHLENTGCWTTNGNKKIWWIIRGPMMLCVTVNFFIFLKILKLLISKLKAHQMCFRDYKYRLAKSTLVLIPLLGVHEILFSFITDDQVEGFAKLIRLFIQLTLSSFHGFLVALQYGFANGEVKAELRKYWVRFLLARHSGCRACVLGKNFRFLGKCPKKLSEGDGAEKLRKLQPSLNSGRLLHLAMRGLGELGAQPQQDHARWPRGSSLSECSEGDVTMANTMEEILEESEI
Assay: cell-based or functional assay

Which “EC50 GLP-2 (nM); cAMP AlphaScreen, HEK293 cells expressing human GLP-2R” value (from here on “EC50 GLP-2 (nM); cAMP AlphaScreen”) does the source give for B1 here?
The value was 0.034 nM.

With B2 as the binder, how does the “EC50 GLP-2 (nM); cAMP AlphaScreen” value read?
Its value is 0.041 nM.

Which “EC50 GLP-2 (nM); cAMP AlphaScreen” value does the source give for B3 here?
Its value is 0.11 nM.

B4 was tested. Which “EC50 GLP-2 (nM); cAMP AlphaScreen” value did it give?
Its value is 0.15 nM.

For B5, which “EC50 GLP-2 (nM); cAMP AlphaScreen” value is on record?
The value was 0.049 nM.

For B6, which “EC50 GLP-2 (nM); cAMP AlphaScreen” value is on record?
The value was 0.078 nM.

For B7, which “EC50 GLP-2 (nM); cAMP AlphaScreen” value is on record?
Its value is 0.034 nM.
